Molecular target: Hcf106 G6CV14C (Pisum sativum)
Assay: cross-linking; disulfide cross-linking with 1 mM CuP for 5 min of [3H]Hcf106 Cys variants integrated into NEM-pretreated thylakoid; non-reducing SDS-PAGE, fluorography

stoichiometry N: < 8
Substance: Hcf106 G6CV14C (natural protein)

— paper PMC6508782
